This note sets out measurements from publication PMC4900634 (PLoS Biology, 2016).

As a reminder, the Kd is the free concentration of one partner at which half of the binding sites on the other are occupied at equilibrium, for simple one-to-one binding. Low values mean higher affinity, high ones lower affinity.

The target in data set [1] is T1, Ec-MscL (mechanosensitive channel of large conductance) (Escherichia coli, UniProt P0A742).
T1 construct: wild type, recombinant, detergent-solubilized channel
T1 sequence (P0A742 whole entry): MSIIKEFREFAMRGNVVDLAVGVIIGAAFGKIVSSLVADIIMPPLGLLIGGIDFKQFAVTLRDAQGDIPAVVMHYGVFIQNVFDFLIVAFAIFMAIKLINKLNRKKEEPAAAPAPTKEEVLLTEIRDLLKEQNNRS
Put plainly: MicroScale Thermophoresis; supported by patch clamp activation at […] DHS and MTS-PEG5000 competition on cysteine mutants. It counts as binding. (Microscale thermophoresis detects binding through changes in fluorescence in a small temperature gradient.)

Data set [2] deals with T2, Ec-MscL (mechanosensitive channel of large conductance) (Escherichia coli, UniProt P0A742, K55T).
T2 construct: recombinant, detergent-solubilized channel
T2 sequence (P0A742 whole entry K55T): as the sequence (P0A742 whole entry) above, with K55T counted along it
Put plainly: MicroScale Thermophoresis, labeled purified protein in DDM (main text prints […]). It counts as binding.

Data set [3] concerns the molecule itself. Put plainly: non-reducing SDS-PAGE with Western blot (dimer band); purified His-tagged cysteine mutants, 5 ug in 50 mM KPi pH 7.5, 150 mM NaCl, 4 mM DM, 22°C; nonreducing sample buffer with iodoacetamide; blot with Penta.His; samples of the MTS-PEG5000 versus DHS competition experiment, mock lanes included. On the technique in general: Immunoblotting shows a protein as a band on a membrane.

Consider `CN[C@@H]1[C@H](O[C@H]2[C@H](O[C@H]3[C@H](O)[C@@H](O)[C@H](NC(=N)N)[C@@H](O)[C@@H]3NC(=N)N)O[C@@H](C)[C@]2(O)CO)O[C@@H](CO)[C@H](O)[C@H]1O` [DHS, dihydrostreptomycin], for which the values for the dissociation constant Kd in data set [1] and in data set [2] were 9.81 ± 0.13 mM and 0.601 ± 0.0551 mM, respectively.

B1: A114C Ec-MscL (Escherichia coli mechanosensitive channel of large conductance, cysteine mutant) (natural protein, UniProt P0A742 1-136, looked up)
chain: MSIIKEFREFAMRGNVVDLAVGVIIGAAFGKIVSSLVADIIMPPLGLLIGGIDFKQFAVTLRDAQGDIPAVVMHYGVFIQNVFDFLIVAFAIFMAIKLINKLNRKKEEPAAAPCPTKEEVLLTEIRDLLKEQNNRS
notes: MscL, mechanosensitive channel of large conductance, Escherichia coli (Ec-MscL); single cysteine mutant; source: E. coli PB104 (pB10) or PB116 (pET21a), purified (Talon resin, in DM); not shown: His6, C-terminal, kept
As for B1, the binding result in data set [3] was “binds”.

B2: K117C Ec-MscL (Escherichia coli mechanosensitive channel of large conductance, cysteine mutant) (natural protein, UniProt P0A742 1-136, looked up)
chain: MSIIKEFREFAMRGNVVDLAVGVIIGAAFGKIVSSLVADIIMPPLGLLIGGIDFKQFAVTLRDAQGDIPAVVMHYGVFIQNVFDFLIVAFAIFMAIKLINKLNRKKEEPAAAPAPTCEEVLLTEIRDLLKEQNNRS
notes: as for B1
In the case of B2, the binding result in data set [3] is “binds”.

B3: T116C Ec-MscL (Escherichia coli mechanosensitive channel of large conductance, cysteine mutant) (natural protein, UniProt P0A742 1-136, looked up)
chain: MSIIKEFREFAMRGNVVDLAVGVIIGAAFGKIVSSLVADIIMPPLGLLIGGIDFKQFAVTLRDAQGDIPAVVMHYGVFIQNVFDFLIVAFAIFMAIKLINKLNRKKEEPAAAPAPCKEEVLLTEIRDLLKEQNNRS
notes: as for B1
Take B3: the binding result in data set [3] is recorded as “binds”.
